In patent publication US20220143145A1:

How the values were obtained:
[1] = biological target: IL10 receptor (IL10Rα) on mouse sensory neurons (mouse) (UniProt Q61727); assay: cell-based or functional assay
[2] = biological target: IL4 receptor (IL4Rα) on mouse sensory neurons (mouse) (UniProt P16382); assay: cell-based or functional assay
UniProt P16382, sequence (P16382 26-810): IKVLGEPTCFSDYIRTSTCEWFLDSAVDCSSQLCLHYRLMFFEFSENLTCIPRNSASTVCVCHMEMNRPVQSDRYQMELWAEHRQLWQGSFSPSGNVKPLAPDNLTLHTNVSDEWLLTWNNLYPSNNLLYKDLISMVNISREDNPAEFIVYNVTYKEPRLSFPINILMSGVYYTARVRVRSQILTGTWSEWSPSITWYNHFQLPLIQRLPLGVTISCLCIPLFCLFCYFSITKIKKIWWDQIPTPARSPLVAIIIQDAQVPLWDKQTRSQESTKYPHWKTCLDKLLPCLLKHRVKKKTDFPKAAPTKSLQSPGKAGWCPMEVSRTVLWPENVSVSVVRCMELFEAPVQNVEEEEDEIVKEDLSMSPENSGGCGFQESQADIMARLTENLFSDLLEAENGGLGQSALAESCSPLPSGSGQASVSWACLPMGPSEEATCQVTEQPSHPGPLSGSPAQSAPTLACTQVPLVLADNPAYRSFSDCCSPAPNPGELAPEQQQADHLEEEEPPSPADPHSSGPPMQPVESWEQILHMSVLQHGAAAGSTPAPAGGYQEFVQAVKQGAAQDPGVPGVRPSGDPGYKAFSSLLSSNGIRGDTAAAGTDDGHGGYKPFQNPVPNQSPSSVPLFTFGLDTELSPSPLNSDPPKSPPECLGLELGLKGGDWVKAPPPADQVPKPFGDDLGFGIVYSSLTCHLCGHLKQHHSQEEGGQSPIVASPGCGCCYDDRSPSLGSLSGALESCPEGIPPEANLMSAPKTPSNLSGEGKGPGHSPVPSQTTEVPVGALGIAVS

UniProt Q61727, sequence (Q61727 17-575): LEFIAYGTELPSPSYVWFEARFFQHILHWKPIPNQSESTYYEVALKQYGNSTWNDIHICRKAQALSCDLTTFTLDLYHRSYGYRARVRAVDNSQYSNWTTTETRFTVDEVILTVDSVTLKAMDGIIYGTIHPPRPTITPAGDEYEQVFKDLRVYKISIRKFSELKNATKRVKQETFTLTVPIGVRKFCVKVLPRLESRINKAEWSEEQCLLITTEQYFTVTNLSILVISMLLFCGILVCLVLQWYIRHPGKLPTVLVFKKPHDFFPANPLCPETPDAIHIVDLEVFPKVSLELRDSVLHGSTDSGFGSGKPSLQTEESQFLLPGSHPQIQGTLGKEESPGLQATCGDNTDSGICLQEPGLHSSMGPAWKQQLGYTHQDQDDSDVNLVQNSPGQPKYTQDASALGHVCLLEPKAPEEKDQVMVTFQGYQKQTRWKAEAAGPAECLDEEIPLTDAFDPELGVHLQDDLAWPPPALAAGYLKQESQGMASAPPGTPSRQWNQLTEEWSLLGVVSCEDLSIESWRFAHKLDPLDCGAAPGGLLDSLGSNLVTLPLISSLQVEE

IL4-10 fusion protein (ligand)
concentration that completely reversed TNFα-induced sensitization of capsaicin-evoked calcium influx [1]: 3 nM | concentration that completely reversed TNFα-induced sensitization of capsaicin-evoked calcium influx [2]: 3 nM
